In IntAct's records for PubMed 22518841:

B1: Complement factor H-related protein 4 (Homo sapiens), Q92496-3 (parent)
chain: MLLLINVILTLWVSCANGQEVKPCDFPEIQHGGLYYKSLRRLYFPAAAGQSYSYYCDQNFVTPSGSYWDYIHCTQDGWSPTVPCLRTCSKSDIEIENGFISESSSIYILNKEIQYKCKPGYATADGNSSGSITCLQNGWSAQPICIKFCDMPVFENSRAKSNGMRFKLHDTLDYECYDGYEISYGNTTGSIVCGEDGWSHFPTCYNSSEKCGPPPPISNGDTTSFLLKVYVPQSRVEYQCQSYYELQGSNYVTCSNGEWSEPPRCIHPCIITEENMNKNNIQLKGKSDIKYYAKTGDTIEFMCKLGYNANTSVLSFQAVCREGIVEYPRCE

Assays:
co3_human C3, P01024 = variants of: B1; settings: with co3_human C3, P01024
cfab_human CFB, P00751 = variants of: B1; settings: with cfab_human CFB
prop_human CFP, P27918 = variants of: B1; settings: with prop_human CFP
prop_human CFP, P27918, sequence (P27918 whole entry): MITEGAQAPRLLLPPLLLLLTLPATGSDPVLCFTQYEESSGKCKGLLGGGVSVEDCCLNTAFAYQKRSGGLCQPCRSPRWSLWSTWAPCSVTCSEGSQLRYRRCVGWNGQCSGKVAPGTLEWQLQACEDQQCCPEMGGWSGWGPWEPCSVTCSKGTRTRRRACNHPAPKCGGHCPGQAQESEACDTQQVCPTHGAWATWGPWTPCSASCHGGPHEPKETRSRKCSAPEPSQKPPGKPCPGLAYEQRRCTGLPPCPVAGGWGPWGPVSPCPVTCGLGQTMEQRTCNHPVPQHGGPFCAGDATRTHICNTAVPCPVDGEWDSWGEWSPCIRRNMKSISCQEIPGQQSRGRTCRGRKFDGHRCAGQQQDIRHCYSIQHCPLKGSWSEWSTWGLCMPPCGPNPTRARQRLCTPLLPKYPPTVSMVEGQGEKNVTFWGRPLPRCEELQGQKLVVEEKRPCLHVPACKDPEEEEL

co3_human C3, P01024, sequence (P01024 whole entry): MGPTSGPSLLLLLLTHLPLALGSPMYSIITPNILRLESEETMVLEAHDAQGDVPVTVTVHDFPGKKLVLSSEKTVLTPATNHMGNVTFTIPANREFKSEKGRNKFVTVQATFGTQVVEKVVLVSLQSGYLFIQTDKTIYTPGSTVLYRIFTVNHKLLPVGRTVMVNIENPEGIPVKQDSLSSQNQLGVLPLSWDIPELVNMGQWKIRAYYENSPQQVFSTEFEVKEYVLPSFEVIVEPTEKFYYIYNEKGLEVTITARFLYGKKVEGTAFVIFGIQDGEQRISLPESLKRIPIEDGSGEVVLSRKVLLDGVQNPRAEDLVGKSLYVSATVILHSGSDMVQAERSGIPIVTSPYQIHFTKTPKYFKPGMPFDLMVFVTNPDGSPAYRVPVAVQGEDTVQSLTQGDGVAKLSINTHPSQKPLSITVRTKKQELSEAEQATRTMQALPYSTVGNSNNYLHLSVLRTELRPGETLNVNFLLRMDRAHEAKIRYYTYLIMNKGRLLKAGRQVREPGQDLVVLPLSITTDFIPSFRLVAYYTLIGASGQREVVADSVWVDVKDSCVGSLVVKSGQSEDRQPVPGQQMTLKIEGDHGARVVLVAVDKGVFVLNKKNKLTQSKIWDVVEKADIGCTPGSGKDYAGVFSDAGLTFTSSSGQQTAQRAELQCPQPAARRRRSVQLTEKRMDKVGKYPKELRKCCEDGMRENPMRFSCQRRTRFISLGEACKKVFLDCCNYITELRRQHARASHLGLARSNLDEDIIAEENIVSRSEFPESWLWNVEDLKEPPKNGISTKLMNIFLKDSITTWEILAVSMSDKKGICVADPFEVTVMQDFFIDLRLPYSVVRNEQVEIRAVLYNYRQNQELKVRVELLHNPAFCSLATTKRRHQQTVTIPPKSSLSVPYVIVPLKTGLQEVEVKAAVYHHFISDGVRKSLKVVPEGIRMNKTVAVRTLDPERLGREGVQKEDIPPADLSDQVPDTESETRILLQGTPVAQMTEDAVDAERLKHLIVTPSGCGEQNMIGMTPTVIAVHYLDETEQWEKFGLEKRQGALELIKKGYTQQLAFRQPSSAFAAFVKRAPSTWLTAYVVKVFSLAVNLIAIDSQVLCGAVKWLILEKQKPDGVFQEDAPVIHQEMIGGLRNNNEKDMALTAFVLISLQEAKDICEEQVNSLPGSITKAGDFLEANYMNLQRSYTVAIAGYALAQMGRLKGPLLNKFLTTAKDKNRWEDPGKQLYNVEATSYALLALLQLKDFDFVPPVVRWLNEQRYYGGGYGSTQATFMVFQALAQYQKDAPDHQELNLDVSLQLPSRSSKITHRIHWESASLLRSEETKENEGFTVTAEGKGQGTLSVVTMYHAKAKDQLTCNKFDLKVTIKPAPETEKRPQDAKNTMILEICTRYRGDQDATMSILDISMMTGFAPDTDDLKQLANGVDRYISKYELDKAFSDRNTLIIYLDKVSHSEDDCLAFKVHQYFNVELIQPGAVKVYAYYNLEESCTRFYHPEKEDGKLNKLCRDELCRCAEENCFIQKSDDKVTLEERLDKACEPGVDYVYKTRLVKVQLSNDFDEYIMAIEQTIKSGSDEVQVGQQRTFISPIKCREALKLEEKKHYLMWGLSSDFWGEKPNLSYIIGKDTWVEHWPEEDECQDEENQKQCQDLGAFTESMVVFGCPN
cfab_human CFB, P00751, sequence (P00751 whole entry): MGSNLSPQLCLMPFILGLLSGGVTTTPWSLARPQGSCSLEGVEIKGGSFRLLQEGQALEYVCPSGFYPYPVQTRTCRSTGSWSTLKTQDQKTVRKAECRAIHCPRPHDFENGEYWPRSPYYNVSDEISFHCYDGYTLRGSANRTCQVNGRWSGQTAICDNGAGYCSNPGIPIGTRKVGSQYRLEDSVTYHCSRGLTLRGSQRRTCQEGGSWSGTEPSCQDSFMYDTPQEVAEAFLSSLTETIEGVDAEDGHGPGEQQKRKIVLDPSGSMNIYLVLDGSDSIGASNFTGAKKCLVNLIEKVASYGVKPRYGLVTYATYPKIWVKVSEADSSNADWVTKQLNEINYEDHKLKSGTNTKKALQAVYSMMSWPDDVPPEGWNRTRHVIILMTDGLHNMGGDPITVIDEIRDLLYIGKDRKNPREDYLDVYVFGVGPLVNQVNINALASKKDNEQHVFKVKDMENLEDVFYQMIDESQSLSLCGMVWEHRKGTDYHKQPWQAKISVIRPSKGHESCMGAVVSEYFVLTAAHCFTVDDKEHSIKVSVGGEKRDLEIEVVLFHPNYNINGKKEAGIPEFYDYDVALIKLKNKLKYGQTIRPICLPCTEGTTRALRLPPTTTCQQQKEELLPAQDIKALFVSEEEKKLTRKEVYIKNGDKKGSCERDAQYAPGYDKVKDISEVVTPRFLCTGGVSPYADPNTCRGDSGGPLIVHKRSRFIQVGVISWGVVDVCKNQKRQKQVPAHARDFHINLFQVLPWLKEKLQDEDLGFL

Row | Variant | effect of a mutation on the interaction (co3_human C3, P01024) | effect of a mutation on the interaction (cfab_human CFB, P00751) | effect of a mutation on the interaction (prop_human CFP, P27918)
1 | D221G;K290A | disrupting interaction strength | disrupting interaction strength | disrupting interaction strength
2 | D221G | decreasing interaction strength | decreasing interaction strength | decreasing interaction strength
